Test results from the supplement of paper PMC10065799, “High-throughput profiling of sequence recognition by tyrosine kinases and SH2 domains using bacterial peptide display” (eLife, 2023).
One block for each sequence: values may come before it.

Experiments:
[1] = molecular target: c-Src SH2; experiment: SH2 binding enrichment of the phosphorylated peptide, bacterial display (enrichment ratio); higher = better substrate or ligand; peptides without Tyr show the background
[2] = molecular target: Grb2 SH2 (UniProt P62993); experiment: as above
[3] = molecular target: SHP2-C SH2; experiment: as above
[4] = molecular target: FGFR1 (UniProt P11362); experiment: phosphorylation enrichment, bacterial display (enrichment ratio); higher = better substrate or ligand; peptides without Tyr show the background
Sequence of FGFR1 (P11362 whole entry, looked up): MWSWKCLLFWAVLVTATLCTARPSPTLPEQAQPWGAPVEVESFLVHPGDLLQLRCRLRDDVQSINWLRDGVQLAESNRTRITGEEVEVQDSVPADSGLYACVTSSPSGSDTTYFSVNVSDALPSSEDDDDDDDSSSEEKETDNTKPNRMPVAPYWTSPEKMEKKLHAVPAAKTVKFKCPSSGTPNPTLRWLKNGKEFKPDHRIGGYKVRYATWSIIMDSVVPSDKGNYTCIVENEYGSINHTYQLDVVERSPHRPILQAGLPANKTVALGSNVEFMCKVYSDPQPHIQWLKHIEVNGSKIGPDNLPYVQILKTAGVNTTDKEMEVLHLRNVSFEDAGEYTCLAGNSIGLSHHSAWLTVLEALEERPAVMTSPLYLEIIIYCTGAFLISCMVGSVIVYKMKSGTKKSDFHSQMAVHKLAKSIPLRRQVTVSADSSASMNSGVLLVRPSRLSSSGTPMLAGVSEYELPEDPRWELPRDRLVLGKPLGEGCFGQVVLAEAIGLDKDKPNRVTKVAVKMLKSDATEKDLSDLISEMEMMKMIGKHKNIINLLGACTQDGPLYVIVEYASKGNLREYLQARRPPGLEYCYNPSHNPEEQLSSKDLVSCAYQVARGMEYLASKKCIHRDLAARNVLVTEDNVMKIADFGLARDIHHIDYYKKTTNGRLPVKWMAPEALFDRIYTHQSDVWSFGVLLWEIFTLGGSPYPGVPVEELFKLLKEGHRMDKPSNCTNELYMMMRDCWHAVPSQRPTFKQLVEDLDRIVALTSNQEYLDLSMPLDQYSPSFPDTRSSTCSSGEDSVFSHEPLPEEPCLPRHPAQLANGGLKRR

[5] = molecular target: Fyn (UniProt P06241); experiment: as above
Sequence of Fyn (P06241 whole entry, looked up): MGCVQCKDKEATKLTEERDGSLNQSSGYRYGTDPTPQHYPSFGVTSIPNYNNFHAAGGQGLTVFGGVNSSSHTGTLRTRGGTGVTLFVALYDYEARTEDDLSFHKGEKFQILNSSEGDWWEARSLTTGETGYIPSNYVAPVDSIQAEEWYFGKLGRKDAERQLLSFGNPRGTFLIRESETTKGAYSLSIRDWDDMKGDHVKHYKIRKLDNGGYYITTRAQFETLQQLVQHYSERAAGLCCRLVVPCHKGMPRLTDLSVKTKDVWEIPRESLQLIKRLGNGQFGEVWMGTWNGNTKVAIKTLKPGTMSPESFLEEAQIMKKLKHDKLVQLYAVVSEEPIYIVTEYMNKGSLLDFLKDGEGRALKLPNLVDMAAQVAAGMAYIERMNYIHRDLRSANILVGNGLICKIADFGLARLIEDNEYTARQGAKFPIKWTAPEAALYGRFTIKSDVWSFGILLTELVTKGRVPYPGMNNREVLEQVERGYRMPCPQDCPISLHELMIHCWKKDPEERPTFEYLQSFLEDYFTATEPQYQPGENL

[6] = tested on: c-Abl (mouse); experiment: as above
[7] = tested on: Fer (mouse); experiment: as above
[8] = molecular target: Hck (UniProt P08631); experiment: as above
Sequence of Hck (P08631 whole entry, looked up): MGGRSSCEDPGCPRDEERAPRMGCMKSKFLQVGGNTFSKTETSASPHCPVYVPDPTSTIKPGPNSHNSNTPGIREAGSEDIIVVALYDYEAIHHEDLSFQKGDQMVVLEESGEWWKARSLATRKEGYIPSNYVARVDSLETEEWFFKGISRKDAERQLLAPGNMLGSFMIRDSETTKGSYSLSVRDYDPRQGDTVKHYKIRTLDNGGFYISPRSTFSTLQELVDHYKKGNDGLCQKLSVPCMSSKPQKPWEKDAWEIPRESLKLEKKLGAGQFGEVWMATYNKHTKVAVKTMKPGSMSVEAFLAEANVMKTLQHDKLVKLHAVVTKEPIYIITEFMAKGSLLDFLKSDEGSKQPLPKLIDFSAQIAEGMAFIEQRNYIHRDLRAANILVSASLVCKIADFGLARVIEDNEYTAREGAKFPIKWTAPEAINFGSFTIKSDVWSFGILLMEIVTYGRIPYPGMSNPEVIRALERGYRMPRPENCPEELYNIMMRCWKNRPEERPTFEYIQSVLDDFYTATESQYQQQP

[9] = molecular target: EPHB1 (UniProt P54762); experiment: as above
Sequence of EPHB1 (P54762 whole entry, looked up): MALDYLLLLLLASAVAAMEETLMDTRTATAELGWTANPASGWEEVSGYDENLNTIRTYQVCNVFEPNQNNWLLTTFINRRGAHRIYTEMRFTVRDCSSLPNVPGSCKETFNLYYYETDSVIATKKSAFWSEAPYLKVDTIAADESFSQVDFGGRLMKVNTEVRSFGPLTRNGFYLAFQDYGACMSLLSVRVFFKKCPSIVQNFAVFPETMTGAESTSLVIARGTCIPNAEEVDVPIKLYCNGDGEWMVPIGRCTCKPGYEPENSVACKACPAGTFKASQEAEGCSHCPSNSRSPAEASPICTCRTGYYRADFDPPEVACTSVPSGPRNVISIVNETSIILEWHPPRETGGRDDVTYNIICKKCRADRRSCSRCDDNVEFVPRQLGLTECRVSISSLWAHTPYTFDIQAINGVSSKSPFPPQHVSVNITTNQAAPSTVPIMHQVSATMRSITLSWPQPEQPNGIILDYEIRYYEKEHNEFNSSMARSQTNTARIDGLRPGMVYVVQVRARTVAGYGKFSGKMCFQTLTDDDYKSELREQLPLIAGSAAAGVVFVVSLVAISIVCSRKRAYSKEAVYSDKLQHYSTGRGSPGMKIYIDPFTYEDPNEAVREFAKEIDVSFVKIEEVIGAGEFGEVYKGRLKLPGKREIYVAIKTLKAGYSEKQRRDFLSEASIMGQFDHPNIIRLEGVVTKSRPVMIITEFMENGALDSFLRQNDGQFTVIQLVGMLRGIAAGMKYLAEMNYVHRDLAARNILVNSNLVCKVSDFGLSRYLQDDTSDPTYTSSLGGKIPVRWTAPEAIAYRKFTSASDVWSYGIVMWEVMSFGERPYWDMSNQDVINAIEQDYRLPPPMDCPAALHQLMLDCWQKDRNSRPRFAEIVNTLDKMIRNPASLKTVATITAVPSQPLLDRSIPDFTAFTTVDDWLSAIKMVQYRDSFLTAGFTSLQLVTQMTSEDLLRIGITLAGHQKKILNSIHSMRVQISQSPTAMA

[10] = molecular target: Fes (UniProt P07332); experiment: as above
[11] = molecular target: EPHB2 (UniProt P29323); experiment: as above
[12] = molecular target: MERTK (UniProt Q12866); experiment: as above
[13] = tested on: AncSZ; experiment: as above
[14] = molecular target: Jak2 (UniProt O60674); experiment: as above
Sequence of Jak2 (O60674 whole entry, looked up): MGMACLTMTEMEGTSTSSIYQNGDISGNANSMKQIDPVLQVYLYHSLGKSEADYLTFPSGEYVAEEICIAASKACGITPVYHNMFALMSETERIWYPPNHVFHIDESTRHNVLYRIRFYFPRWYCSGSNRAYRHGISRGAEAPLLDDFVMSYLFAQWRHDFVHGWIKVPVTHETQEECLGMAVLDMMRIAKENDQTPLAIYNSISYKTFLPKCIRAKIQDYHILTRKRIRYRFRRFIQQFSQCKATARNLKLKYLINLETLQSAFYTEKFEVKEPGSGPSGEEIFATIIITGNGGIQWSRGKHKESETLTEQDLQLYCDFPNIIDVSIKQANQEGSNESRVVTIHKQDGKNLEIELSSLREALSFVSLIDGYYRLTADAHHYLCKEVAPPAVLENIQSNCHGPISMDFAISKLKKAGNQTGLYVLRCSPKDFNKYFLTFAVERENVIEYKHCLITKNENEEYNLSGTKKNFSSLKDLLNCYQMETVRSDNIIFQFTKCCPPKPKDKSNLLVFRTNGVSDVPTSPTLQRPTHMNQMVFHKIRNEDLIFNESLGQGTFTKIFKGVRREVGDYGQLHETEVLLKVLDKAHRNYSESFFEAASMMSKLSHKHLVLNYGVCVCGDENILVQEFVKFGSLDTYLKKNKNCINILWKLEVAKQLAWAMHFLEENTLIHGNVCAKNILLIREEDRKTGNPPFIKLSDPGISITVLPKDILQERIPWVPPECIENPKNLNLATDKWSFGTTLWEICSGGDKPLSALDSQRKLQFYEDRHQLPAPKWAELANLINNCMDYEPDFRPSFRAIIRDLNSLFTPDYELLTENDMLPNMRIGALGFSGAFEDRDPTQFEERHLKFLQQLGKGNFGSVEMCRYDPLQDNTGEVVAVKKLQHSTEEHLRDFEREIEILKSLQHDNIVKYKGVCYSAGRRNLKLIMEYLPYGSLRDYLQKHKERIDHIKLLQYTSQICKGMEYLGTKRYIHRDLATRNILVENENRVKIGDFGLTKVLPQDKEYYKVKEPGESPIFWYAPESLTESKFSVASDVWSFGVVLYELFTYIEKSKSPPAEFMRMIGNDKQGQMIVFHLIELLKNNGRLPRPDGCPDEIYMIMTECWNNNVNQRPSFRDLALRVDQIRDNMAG

[15] = tested on: c-Src; experiment: as above
[16] = molecular target: FGFR3 (UniProt P22607); experiment: as above
Sequence of FGFR3 (P22607 whole entry, looked up, the tested form may be a part): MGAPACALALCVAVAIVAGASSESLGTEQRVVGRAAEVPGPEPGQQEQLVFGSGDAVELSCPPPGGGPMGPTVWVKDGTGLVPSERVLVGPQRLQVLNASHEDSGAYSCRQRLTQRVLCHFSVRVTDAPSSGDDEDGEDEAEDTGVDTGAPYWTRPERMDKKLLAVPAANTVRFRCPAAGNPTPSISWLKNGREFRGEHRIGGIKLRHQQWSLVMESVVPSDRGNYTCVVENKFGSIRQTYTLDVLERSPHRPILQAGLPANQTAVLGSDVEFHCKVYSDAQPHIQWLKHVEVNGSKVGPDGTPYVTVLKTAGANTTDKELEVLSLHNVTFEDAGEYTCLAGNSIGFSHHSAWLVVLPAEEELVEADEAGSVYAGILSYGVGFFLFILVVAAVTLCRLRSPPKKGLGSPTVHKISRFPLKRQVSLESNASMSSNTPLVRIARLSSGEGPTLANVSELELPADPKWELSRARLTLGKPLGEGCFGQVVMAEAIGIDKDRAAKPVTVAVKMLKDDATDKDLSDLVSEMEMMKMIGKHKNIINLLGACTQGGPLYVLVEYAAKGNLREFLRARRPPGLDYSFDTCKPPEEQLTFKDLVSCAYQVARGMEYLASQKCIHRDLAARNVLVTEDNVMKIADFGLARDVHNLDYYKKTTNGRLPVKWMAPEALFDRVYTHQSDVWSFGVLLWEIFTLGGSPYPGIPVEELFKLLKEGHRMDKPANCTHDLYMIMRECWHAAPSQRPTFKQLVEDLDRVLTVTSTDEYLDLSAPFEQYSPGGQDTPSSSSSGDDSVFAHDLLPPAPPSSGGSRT
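Wherever SH2 binding enrichment of the phosphorylated peptide, bacterial display is given: peptide library displayed on the E. coli surface as eCPX fusions, selected cells deep-sequenced, score is each peptide's frequency after selection divided by its frequency in the input.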
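Wherever phosphorylation enrichment, bacterial display is given: 11-residue human phosphosite peptides and single-mutation variants displayed on the E. coli surface, counted by deep sequencing, each peptide's frequency after selection divided by its frequency in the unselected input library; frequency after pTyr selection over input frequency; kinase dosed for 20-30% of maximal phosphorylation in three min.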

SH2 binding enrichment [1]: 0.699 | SH2 binding enrichment [2]: 0.794 | SH2 binding enrichment [3]: 0.434
Sequence: EAESWYQTKFE [KRT75_Y342_YF]
phosphorylation enrichment [4]: 0.49 | phosphorylation enrichment [5]: 0.662 | phosphorylation enrichment [6]: 0.684 | phosphorylation enrichment [7]: 0.624 | phosphorylation enrichment [8]: 0.735 | phosphorylation enrichment [9]: 0.721 | phosphorylation enrichment [10]: 1.18 | phosphorylation enrichment [11]: 0.568 | phosphorylation enrichment [12]: 0.436 | phosphorylation enrichment [13]: 1.06 | phosphorylation enrichment [14]: 0.906 | phosphorylation enrichment [15]: 0.583 | phosphorylation enrichment [16]: 0.808

SH2 binding enrichment [1]: 0.481 | SH2 binding enrichment [2]: 0.783 | SH2 binding enrichment [3]: 0.55
Sequence: EASGIYVKSVI [PATJ_Y396_I400V]
phosphorylation enrichment [4]: 0.47 | phosphorylation enrichment [5]: 0.433 | phosphorylation enrichment [6]: 0.716 | phosphorylation enrichment [7]: 0.481 | phosphorylation enrichment [8]: 0.501 | phosphorylation enrichment [9]: 0.543 | phosphorylation enrichment [10]: 1.1 | phosphorylation enrichment [11]: 0.465 | phosphorylation enrichment [12]: 0.366 | phosphorylation enrichment [13]: 0.958 | phosphorylation enrichment [14]: 0.97 | phosphorylation enrichment [15]: 0.462 | phosphorylation enrichment [16]: 0.741

SH2 binding enrichment [1]: 0.554 | SH2 binding enrichment [2]: 0.786 | SH2 binding enrichment [3]: 0.667
Sequence: ECKLLYSQKEG [PTPN11_Y263_R265Q]
phosphorylation enrichment [4]: 0.532 | phosphorylation enrichment [5]: 0.489 | phosphorylation enrichment [6]: 0.724 | phosphorylation enrichment [7]: 0.607 | phosphorylation enrichment [8]: 0.682 | phosphorylation enrichment [9]: 0.643 | phosphorylation enrichment [10]: 1.08 | phosphorylation enrichment [11]: 0.759 | phosphorylation enrichment [12]: 0.494 | phosphorylation enrichment [13]: 0.865 | phosphorylation enrichment [14]: 0.986 | phosphorylation enrichment [15]: 0.541 | phosphorylation enrichment [16]: 0.705

SH2 binding enrichment [1]: 2.83 | SH2 binding enrichment [2]: 0.963 | SH2 binding enrichment [3]: 0.875
Sequence: EERNPYYSSAR [MCCC2_Y520_G517R]
phosphorylation enrichment [4]: 0.487 | phosphorylation enrichment [5]: 0.654 | phosphorylation enrichment [6]: 0.591 | phosphorylation enrichment [7]: 0.505 | phosphorylation enrichment [8]: 0.828 | phosphorylation enrichment [9]: 0.472 | phosphorylation enrichment [10]: 0.749 | phosphorylation enrichment [11]: 0.5 | phosphorylation enrichment [12]: 0.468 | phosphorylation enrichment [13]: 0.942 | phosphorylation enrichment [14]: 0.923 | phosphorylation enrichment [15]: 1.56 | phosphorylation enrichment [16]: 0.552

SH2 binding enrichment [1]: 0.489 | SH2 binding enrichment [2]: 0.883 | SH2 binding enrichment [3]: 1.21
Sequence: EFNLMYDGTKE [IRF6_Y97]
phosphorylation enrichment [4]: 0.498 | phosphorylation enrichment [5]: 0.536 | phosphorylation enrichment [6]: 0.705 | phosphorylation enrichment [7]: 0.479 | phosphorylation enrichment [8]: 0.595 | phosphorylation enrichment [9]: 0.447 | phosphorylation enrichment [10]: 1.14 | phosphorylation enrichment [11]: 0.462 | phosphorylation enrichment [12]: 0.446 | phosphorylation enrichment [13]: 0.993 | phosphorylation enrichment [14]: 1.03 | phosphorylation enrichment [15]: 0.597 | phosphorylation enrichment [16]: 0.603

SH2 binding enrichment [1]: 0.468 | SH2 binding enrichment [2]: 0.881 | SH2 binding enrichment [3]: 0.605
Sequence: EFTAGYNVKFD [GPX4_Y123_A120T]
phosphorylation enrichment [4]: 0.41 | phosphorylation enrichment [5]: 0.465 | phosphorylation enrichment [6]: 0.635 | phosphorylation enrichment [7]: 0.495 | phosphorylation enrichment [8]: 0.435 | phosphorylation enrichment [9]: 0.422 | phosphorylation enrichment [10]: 0.891 | phosphorylation enrichment [11]: 0.474 | phosphorylation enrichment [12]: 0.445 | phosphorylation enrichment [13]: 0.762 | phosphorylation enrichment [14]: 0.9 | phosphorylation enrichment [15]: 0.44 | phosphorylation enrichment [16]: 0.547

The remaining lines, values behind:

Sequence: EARRVYRDIIH [ALDH5A1_Y175_G176R]
SH2 binding enrichment [1]: 0.513 | SH2 binding enrichment [2]: 0.928 | SH2 binding enrichment [3]: 0.75 | phosphorylation enrichment [4]: 0.357 | phosphorylation enrichment [5]: 0.352 | phosphorylation enrichment [6]: 0.528 | phosphorylation enrichment [7]: 0.305 | phosphorylation enrichment [8]: 0.325 | phosphorylation enrichment [9]: 0.318 | phosphorylation enrichment [10]: 0.547 | phosphorylation enrichment [11]: 0.386 | phosphorylation enrichment [12]: 0.403 | phosphorylation enrichment [13]: 0.549 | phosphorylation enrichment [14]: 0.475 | phosphorylation enrichment [15]: 0.41 | phosphorylation enrichment [16]: 0.415

Sequence: EEGESYVCSSD [DCX_Y125]
SH2 binding enrichment [1]: 0.793 | SH2 binding enrichment [2]: 1.08 | SH2 binding enrichment [3]: 0.839 | phosphorylation enrichment [4]: 0.676 | phosphorylation enrichment [5]: 0.56 | phosphorylation enrichment [6]: 0.924 | phosphorylation enrichment [7]: 0.799 | phosphorylation enrichment [8]: 0.694 | phosphorylation enrichment [9]: 0.814 | phosphorylation enrichment [10]: 1.41 | phosphorylation enrichment [11]: 0.792 | phosphorylation enrichment [12]: 0.58 | phosphorylation enrichment [13]: 1.31 | phosphorylation enrichment [14]: 1.21 | phosphorylation enrichment [15]: 0.603 | phosphorylation enrichment [16]: 0.945

Sequence: EEKKKYFDAKI [CASP5_Y103_T106A_YF]
SH2 binding enrichment [1]: 0.446 | SH2 binding enrichment [2]: 1.01 | SH2 binding enrichment [3]: 0.672 | phosphorylation enrichment [4]: 0.488 | phosphorylation enrichment [5]: 0.4 | phosphorylation enrichment [6]: 0.58 | phosphorylation enrichment [7]: 0.401 | phosphorylation enrichment [8]: 0.442 | phosphorylation enrichment [9]: 0.385 | phosphorylation enrichment [10]: 0.818 | phosphorylation enrichment [11]: 0.43 | phosphorylation enrichment [12]: 0.501 | phosphorylation enrichment [13]: 0.798 | phosphorylation enrichment [14]: 0.684 | phosphorylation enrichment [15]: 0.479 | phosphorylation enrichment [16]: 0.464

Sequence: EESSHYSTEKE [ADAR_Y587]
SH2 binding enrichment [1]: 0.549 | SH2 binding enrichment [2]: 0.955 | SH2 binding enrichment [3]: 0.646 | phosphorylation enrichment [4]: 0.597 | phosphorylation enrichment [5]: 0.633 | phosphorylation enrichment [6]: 0.604 | phosphorylation enrichment [7]: 0.531 | phosphorylation enrichment [8]: 0.589 | phosphorylation enrichment [9]: 0.621 | phosphorylation enrichment [10]: 1.47 | phosphorylation enrichment [11]: 0.493 | phosphorylation enrichment [12]: 0.509 | phosphorylation enrichment [13]: 1.14 | phosphorylation enrichment [14]: 0.658 | phosphorylation enrichment [15]: 0.427 | phosphorylation enrichment [16]: 0.578

Sequence: EFISESCGEII [EZH2_Y641_Y641S]
SH2 binding enrichment [1]: 0.532 | SH2 binding enrichment [2]: 1 | SH2 binding enrichment [3]: 0.716 | phosphorylation enrichment [4]: 0.567 | phosphorylation enrichment [5]: 0.484 | phosphorylation enrichment [6]: 0.783 | phosphorylation enrichment [7]: 0.484 | phosphorylation enrichment [8]: 0.476 | phosphorylation enrichment [9]: 0.544 | phosphorylation enrichment [10]: 1.19 | phosphorylation enrichment [11]: 0.752 | phosphorylation enrichment [12]: 0.419 | phosphorylation enrichment [13]: 1.17 | phosphorylation enrichment [14]: 1.04 | phosphorylation enrichment [15]: 0.568 | phosphorylation enrichment [16]: 0.592

Sequence: EICTQYEAMAS [GFAP_Y242_R239C]
SH2 binding enrichment [1]: 2.84 | SH2 binding enrichment [2]: 0.989 | SH2 binding enrichment [3]: 0.804 | phosphorylation enrichment [4]: 0.517 | phosphorylation enrichment [5]: 0.576 | phosphorylation enrichment [6]: 0.71 | phosphorylation enrichment [7]: 0.829 | phosphorylation enrichment [8]: 0.708 | phosphorylation enrichment [9]: 0.65 | phosphorylation enrichment [10]: 1.15 | phosphorylation enrichment [11]: 0.614 | phosphorylation enrichment [12]: 0.55 | phosphorylation enrichment [13]: 1.23 | phosphorylation enrichment [14]: 0.777 | phosphorylation enrichment [15]: 0.601 | phosphorylation enrichment [16]: 0.683

Sequence: EIIPFYGMSTF [FNDC3B_Y175_YF]
SH2 binding enrichment [1]: 3.09 | SH2 binding enrichment [2]: 0.731 | SH2 binding enrichment [3]: 0.575 | phosphorylation enrichment [4]: 0.461 | phosphorylation enrichment [5]: 0.687 | phosphorylation enrichment [6]: 0.97 | phosphorylation enrichment [7]: 0.897 | phosphorylation enrichment [8]: 0.844 | phosphorylation enrichment [9]: 0.532 | phosphorylation enrichment [10]: 0.911 | phosphorylation enrichment [11]: 0.667 | phosphorylation enrichment [12]: 0.901 | phosphorylation enrichment [13]: 0.955 | phosphorylation enrichment [14]: 0.879 | phosphorylation enrichment [15]: 0.782 | phosphorylation enrichment [16]: 0.524

Sequence: EIVYVYVKKRS [DNAI2_Y7]
SH2 binding enrichment [1]: 0.483 | SH2 binding enrichment [2]: 0.687 | SH2 binding enrichment [3]: 0.805 | phosphorylation enrichment [4]: 0.52 | phosphorylation enrichment [5]: 0.354 | phosphorylation enrichment [6]: 0.64 | phosphorylation enrichment [7]: 0.465 | phosphorylation enrichment [8]: 0.538 | phosphorylation enrichment [9]: 0.555 | phosphorylation enrichment [10]: 1.1 | phosphorylation enrichment [11]: 0.57 | phosphorylation enrichment [12]: 0.377 | phosphorylation enrichment [13]: 1.29 | phosphorylation enrichment [14]: 1.01 | phosphorylation enrichment [15]: 0.399 | phosphorylation enrichment [16]: 0.675

Sequence: EKEKKYMLPLD [DNM2_Y563]
SH2 binding enrichment [1]: 0.534 | SH2 binding enrichment [2]: 0.902 | SH2 binding enrichment [3]: 0.841 | phosphorylation enrichment [4]: 0.412 | phosphorylation enrichment [5]: 0.625 | phosphorylation enrichment [6]: 0.589 | phosphorylation enrichment [7]: 0.489 | phosphorylation enrichment [8]: 0.591 | phosphorylation enrichment [9]: 0.526 | phosphorylation enrichment [10]: 0.796 | phosphorylation enrichment [11]: 0.473 | phosphorylation enrichment [12]: 0.449 | phosphorylation enrichment [13]: 0.885 | phosphorylation enrichment [14]: 0.849 | phosphorylation enrichment [15]: 0.452 | phosphorylation enrichment [16]: 0.466

Sequence: EKEQNYDLTEV [ECD_Y448]
SH2 binding enrichment [1]: 0.704 | SH2 binding enrichment [2]: 0.962 | SH2 binding enrichment [3]: 0.802 | phosphorylation enrichment [4]: 0.655 | phosphorylation enrichment [5]: 0.544 | phosphorylation enrichment [6]: 0.737 | phosphorylation enrichment [7]: 0.694 | phosphorylation enrichment [8]: 0.666 | phosphorylation enrichment [9]: 0.569 | phosphorylation enrichment [10]: 1.31 | phosphorylation enrichment [11]: 0.675 | phosphorylation enrichment [12]: 0.593 | phosphorylation enrichment [13]: 1.31 | phosphorylation enrichment [14]: 1.06 | phosphorylation enrichment [15]: 0.466 | phosphorylation enrichment [16]: 0.73

Sequence: EKKDIYKAGEQ [CFH_Y1008_V1007I]
SH2 binding enrichment [1]: 0.365 | SH2 binding enrichment [2]: 0.826 | SH2 binding enrichment [3]: 0.648 | phosphorylation enrichment [4]: 0.327 | phosphorylation enrichment [5]: 0.341 | phosphorylation enrichment [6]: 0.5 | phosphorylation enrichment [7]: 0.362 | phosphorylation enrichment [8]: 0.373 | phosphorylation enrichment [9]: 0.353 | phosphorylation enrichment [10]: 0.696 | phosphorylation enrichment [11]: 0.424 | phosphorylation enrichment [12]: 0.362 | phosphorylation enrichment [13]: 0.493 | phosphorylation enrichment [14]: 0.488 | phosphorylation enrichment [15]: 0.431 | phosphorylation enrichment [16]: 0.364
